# Ends that are not written are not given here.
# How the values were obtained:
# [1] = target: T1, human Neuropeptide Y Receptor Y2 (Homo sapiens, UniProt P49146); assay: In vitro receptor potency: inhibition of forskolin-stimulated cAMP in hY2 CHO-K1 cells; format: cell-based; settings: for Average ratio to PYY2-36 ± SEM: ratio of example compound EC50 to PYY2-36 EC50, cAMP, hY2 CHO-K1 cells (DiscoverX), 0.02 mM forskolin, 30 minutes
# T1 construct: host or cells: CHO-K1
# T1 sequence (P49146 1-381): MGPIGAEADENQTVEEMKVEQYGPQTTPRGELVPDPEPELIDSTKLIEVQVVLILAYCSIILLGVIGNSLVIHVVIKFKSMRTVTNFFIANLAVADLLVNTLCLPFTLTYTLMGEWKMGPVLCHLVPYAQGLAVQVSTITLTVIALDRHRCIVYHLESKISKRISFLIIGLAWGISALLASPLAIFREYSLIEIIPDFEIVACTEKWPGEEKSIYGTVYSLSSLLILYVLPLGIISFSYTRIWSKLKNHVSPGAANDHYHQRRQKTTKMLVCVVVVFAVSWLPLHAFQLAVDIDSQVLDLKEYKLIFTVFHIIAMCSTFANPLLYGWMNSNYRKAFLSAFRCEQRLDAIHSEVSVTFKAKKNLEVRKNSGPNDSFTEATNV
# Procedure: (§1) DiscoverX® hY2 CHO-K1 cells (10,000 cells per well (96 well plate)) were resuspended in media containing 0.2 mM IBMX and 0.02 mM forskolin (which stimulates cAMP production) and test peptides at a range of concentrations, for 30 minutes. The reaction stopped by lysing the cells and cAMP quantified 60 minutes later using Cisbio cAMP dynamic 2 kit.
# as §1, with “Ten thousand” for “DiscoverX® hY2 CHO-K1 cells (10,000”, “plate)” for “plate))”
# [2] = test system: overnight fasted male Wistar rats; assay: Rat feeding experiment, single subcutaneous injection, food intake and body weight monitored for 6 days; format: in vivo; settings: single subcutaneous injection of peptide in saline vs control saline; monitored for following 6 days; FIGS. 3A-3D, 4A-4D
# Excerpt: Animals were randomised into treatment groups, with stratification by body weight.
Average ratio to PYY2-36 ± SEM [1],Substance,"ability to inhibit forskolin production (potency compared with Y242) ([1]; hY2 CHO-K1 cells, compared with previous generation compound Y242, FIG. 2)",reductions in food intake and body weight [2]
0.8 ± 0.16,Pro-Ile-Lys-Pro-Glu-Ala-Pro-Gly-Glu-Gly-Ala-Ser-Pro-Glu-Glu-Leu-Leu-His-Tyr-Tyr-Ala-Ala-Leu-Arg-His-Phe-Leu-Asn-His-Val-Thr-Arg-Gln-Arg-Tyr-NH2 (PIKPEAPGEGASPEELLHYYAALRHFLNHVTRQRY-NH2) [Peptide Y1419],much more potent inhibitor than the previous generation of preferred compounds,a single initial dose is still active at 160 hours after administration
0.9 ± 0.09,Y1421: example PYY analogue peptide; sequence given in FIGS. 1A-1D (PIKPEAPGQGASPEELLHYYAALRHFLNHVTRQRY-NH2) [Peptide Y1421],–,–
1.7 ± 0.13,Y1518: example PYY analogue peptide; sequence given in FIGS. 1A-1D (PIKPEAPGEGASPEELLHYYAALRHFLNHLTRQRY-NH2) [Peptide Y1518],–,–

# Source: patent US12617830B2, “Analogues of PYY” (IP2IPO Innovations Limited, priority 2017, dated 2026)
